Where two headings read alike, the source gives them in different places.

One test has as its target CaMKII^F394BzF (human) (UniProt Q9UQM7).
Test [1] has as its target CaMKII^K42RD135N-AviTag (kinase-dead CaMKII, K42R and D135N double mutant, C-terminal AviTag) (human) (UniProt Q9UQM7). Description: mass photometry.
The target is the same in test [2]. Description: mass photometry. This is another data set of the same source.
Test [3] shares this target.

On to “CaMKII^F394BzF (from UniProt Q9UQM7 6-478) (enzyme)”, for which, in the test with CaMKII^F394BzF (human), the stoichiometry N came out at 12.
Consider “CaMKII^K42RD135N-AviTag (kinase-dead CaMKII, K42R and D135N double mutant, C-terminal AviTag) (from UniProt Q9UQM7 6-478) (enzyme)”, for which the stoichiometry N in test [1] came out at 10; in test [2], 4; in test [3] it was 12. The percent in the tetramer peak in test [2] came to 12%.

The values are drawn from publication doi:10.1101/2022.08.03.502606.
